From article doi:10.1101/2021.05.11.443658 (bioRxiv, 2021) come the findings set out here.

The data set deals with the molecule itself. The data set can be described thus: non-reducing SDS-PAGE.

B1: Thioredoxin-His-tagged OsbZIP47 full-length protein (natural protein, rice (Oryza sativa), UniProt Q5Z6N9 1-385, looked up)
chain: MAAHQGMAAATAADRFCLPRMAAAAAAASQVENWGDSGVIVSSPFTDDTSTDLDDSADKHHLHALVGGGDGGDDAGEQRGADSSAVSKERRGDQKMQRRLAQNREAARKSRMRKKAYIQQLESSRSKLMHLEQELQRARQQGIFIATGGSGDHGHSIGGNGTLAFDLEYARWLDEHQRHINDLRVALNAQMSDDELCELVDAVMMHYDQVFRLKSFATKSDVFHVLSGMWMSPAERFFMWLGGFRSSELLKVLASHLEPLTDQQLMGICNLQQSSQQAEDALSQGMEALQQTLGDTLVSAAATVVSGGGGADNVTNYMGQMAIAMAKLTTLENFLRQADLLRHQTLQQMHRILTTRQAARALLVISDYFSRLRALSSLWLARPRD
Regarding B1, the binding result is recorded as “binds”.
